Assay: purified protein yield per well (BCA); higher = higher soluble expression
Procedure: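 Candidate PET hydrolases were expressed in E. coli C41(DE3) in 2 mL autoinduction cultures in 24-deep-well plates, Ni-bead purified and released by SUMO protease cleavage on an OT-2 robot. Yield per well was measured by BCA; values below 25 ug (0.1 mg/mL) are below the detection threshold. Melting temperature was measured by differential scanning fluorimetry with Sypro Orange, ramping from 25 C at 0.3 C/step.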

| Sequence | purified protein yield per well |
| --- | --- |
| AADNPYERGPAPTVSSIEAARGSYAVSQTSVSSLSVSGFGGGTVYYPSSTADGTFGAVVISPGFTAYQSSIAWLGPRLASQGFVVFTIDTNTTLDQPDSRGRQLLAALDYLTKSSSVRGRVDASRLGVMGHSMGGGGSLEAAKSRTSLKAAIPLTGWNADKTWPELRTPTLVVGADGDTVAPVSSHSEPFYQSLPSTLDKAYLELNGATHFTPNSSNTTIAKYSISWLKRFIDNDTRYEQFLCPLPRPSLTIEEYRGNCPHGS [TEP044] | < 25 µg |
| AADNPYERGPDPTEQSVTAIRGPFNVAQTDVSRLAVTGFGGGTIYYPTDTSQGTFGAIAISPGFTAYWSSLSWLGPRLASQGFVVFGIETNTTLDQPAQRGQQLLAALDYLTQRSSVRSRVDASRLAVAGHSMGGGGTLEAAKSRTSLKAAIPIAPWNLDKTWPEVRTPTLIIGGELDSIAPVATHSKPFYSSLSNAPEKAYLELDNASHFFPQISNTTMAKYMISWMKRFIDNDTRYDQFLCPPPRAIGDISDYQDTCPHS [TEP031] | < 25 µg |
| AANPYERGPAPTTAVLEAARGPFATTSAAIARTSSFGGGTVYYPTDTSQGTFGAVAISPGFSATQSSVAWYGPRLASHGFVVVTINTLSGWDDPDSRARQLLAALDYLTNTHAVRTRIDKTRLGVMGHSMGGGGALRASVSRPSLQAAIPLAPWHNTKNWSSDGVPTLIVGAENDTVAPVNQHAEPFYTSITGAPDKAYLELNNAGHSAPSSEGPNVTVGKFSVAWLKRFIDNDTRYEQFLCPAPRPDTRINEYRDTCPHS [TEP084] | < 25 µg |
| AAPAHHAAPAHAAVHHHAPFALRTTVVPRTAVTKFGGGVIYEPRDTGKPVLGAVVITPGFTDTNADEKEYAELVASQGFVAFAIDTLDTGDIPADRATQMLAAVDWLTGSSPVKAEVSPDRVALLGYSFGGGGAMQAAQSRPSIKAVVGMMPFDAPPESDPNATTPAYPRMTTPTLVITGQEDDVADPKYFGKPAYDSIPAGTPKQYLELKGLGHGAGEHMPVPTVRTAVTAFLKRYLDGNSAYGRFICPAPKAVGPISASLSSCPRG [ESM110] | < 25 µg |
| AAPATAPSVQRAAANPHERGPAPTEESITAEEGPFEFETIDVPAGSGDGFNQGTIYAPTDLSQGTFGAIAVSPGFVSPEALISWYGPRLASQGFVVMTIETNTLLDQPAARGDQLLAALDYLTGGDSPVRDRVDTGRLAVTGHSMGGGGTLEAARERPGLRAAVPLAPWNLNSDWSAVRTPTMILGAQNDFIAANGLHSEPFYEGLTSAPEKAYAEIANTGHMSFNTPNDVIAKYTIAWMKRYVDDDTRYERFLCPAPSDDPALVEYRDTCPGG [TEP002] | < 25 µg |
| AAPHASTAHHHAPFAVRTTVVPRTADAKFGGGVIYEPQDTGKPVLGAVVITPGFTDTNADEKEMAELVASQGFVAFAIDTLDVGDLPDQRATEILAAADYLTGQSAVKSQVSAKDLAFLGYSMGGGGTFQAAQARPSVKAAIGLMPFDIPDANDPNATTPSYPKLTTPSLVVTGQKDDVADPEYFGKPIYDSIPVGTPKQYLELTGLGHGAGEHVPAPTIRVAVTAFLKRYLDGNSAYAKYICPAPKVGGPVSASLSSCPQG [ESM176] | < 25 µg |
| AAPPVPQVAASPYERGPAPSEESVTAAEGPFEFETIDVPAGSGDGFNQGTIYAPTDRSQGTFGAIAVSPGFVSPEALVSWYGPRLASQGFVVMTIETNTVLDLPAMRGDQLLAALDYLTGAASPVADRVDPDRLAVMGHSMGGGGTLEAASRRTDLRAAVPLAPWNLTSDWSAVRTPTMILGAQNDFIAANGLHSEPFYEGLTSAPEKAYAELENTGHMSFNTPNDTIAKYTIAWMKRYVDDDARYERFLCPAPSDDPALIEYRDTCPGG [TEP149] | < 25 µg |
| AAPVHHAVTRPVAAHHPVTRPVAGHAPPPSTVDQIVVPATADARFGGGTIFAPHGAGQKVLGSVIVTPGFHGRKSDMAVYGTELAAEGFVVFTIDTRERADLPAQRATEMLAAADYLTGRSAVKGEVSPDRVALLGYSMGGGGTLEAAQERPSIKAALTLMPYDYPPAGDPKAVHPAYPELTVPTLIITGQKDATAIPAKFGKPAYDSIPAGTPKQYLQLTGLGHAAGMGKPTATIRAAITAFLERYLDGDTAYAKDICPAPEVGGPISASTSSCPAG [ESM183] | < 25 µg |
| AAPVHHAVTRPVAAHHPVTRPVPRPVVAHAPQPPAVDQIVVPATADARFGGGTIFAPRGAGQKVLGSVVVTPGFHGRKSDMAVYGTELAAEGFVVFTIDTRDRADLPDQRATEMLAAADYLTGRSAVKGEVSPDRVALLGYSMGGGGTLQAAQERPSIKAALTLMPYDYPPAGDPKAVHPAYPELTVPTLIITGQKDATAIPAKFGKPAYDSIPAGTPKQYLQLTGLGHAAGMGKPTATIRAAITAFLERYLDGDTAYAKDICPAPKVGGPISASTSSCGTS [ESM119] | < 25 µg |
| AAPVHHPVTRPAPAHHQPAAAAVDQIVVPAAADARFGGGTIFAPRGAGQKVLGSVVVTPGFHGRKSDMAVYGTELAAEGFVVFTIDTRDRADLPDQRATEMLAAADYLTGRSAVKGEVSPDRVALLGYSMGGGGTLQAAQERPSIKAALTLMPYDYPPAGDPKAVHPAYPELTVPTLIITGQKDATAIPAKFGKPAYDSIPAGTPKQYLQLTGLGHAAGMGKPTVAIRAAVTAFLERYLDGDTAYAKQICPAPKVGGPISASISSCPAG [ESM150] | < 25 µg |
| ADNPFERGPDPSESSIEAYRGAYSVSEQSVSRWVSGFGGGTIHYPTTRSDGTFGAVVVSPGYTGTESSISWLGPRLASQGFVVLTMVTNSIYDYPDSRARQLQAALDYLTSSSSGVADRIDPDRLALMGHSMGGGGTLRAVSENPDIKAAIPMTPWHTDKTWREVTTPTLIFGAENDTVAPHYSHAEPFYDSLPSSLEKVYLELDGASHFAPNYSNTTIAKYSISWLKRFVDDDTRYSQFLCPGPSFWDGDVQTYESTCDF [TEP197] | < 25 µg |
| ADNPHERGPDPTESSIEALRGSYAVSERSVSRWVSGFGGGTIYYPTTTSDGDFGAVVISPGYTGTESTVAWLGPRLASQGFVVLTMATNSIYDQPDSRARQLQAALDYLTASSPVADRIDADRLALMGHSMGGGGTLRAVDDNPDIKAAIPMTPWHPQKDWSSVSTPTLIFAAENDSVARHETHAEPFYESFEQDLPKAYLELDGASHFAPNTSNTTIAKYSISWLKRFVDDDTRYTPFLCPGPSTGWLSDVEKYESSCPF [DP076] | < 25 µg |
| ADNPYERGPAPTNSSIEASRGPFAVSETSVSSLVSGFGGGTIYYPTSTSAGTFGAVAISPGYTGTQSTMAWLGPRLASQGFVIFTIDTNSVYDQPDSRASQLLAALDYLTQQSTVRTRIDSSRLGVMGHSMGGGGTLRAASQRPSLQAAIPLTGWHTTKNWSSVRVPTLVVGAESDSVAPVSSHSEPFYTSLPSTLDKAYLELNNASHFAPNSSNTTIAKYSISWLKRFIDNDTRYEQFLCPAPGRSTLIEEYRDTCPHS [TEP028] | < 25 µg |
| ADNPYERGPAPTNSSIEATRGPFAVSDTRVSSLVSGFGGGTIYYPTSTSSGTFGAVVISPGFTGTQSSIDWLGPRIASQGFVVFTIDTITIYDQPDSRASQLLAALDYLTQRSDVRSRIDASRLGVMGHSMGGGGTLRAAAQRPSLQAAIPLTGWHTTKNWSSVSVPTLVIGAESDSVAPVATHSEPFYTSLPSTLDKAYLELNNASHFAPNLPDTTIAKYSISWLKRFIDNDTRYEQFLCPGPGRSTQVEEYRNTCPNS [TEP025] | < 25 µg |
| ADNPYERGPAPTRASIEAPRGPYAVSQTSVSSLLVSGFGGGTIYYPTSTSDGTFGAVVVTPGFTATESSMAWLGPRLASQGFVVFTIDTLTTLDQPDSRGRQMLAALDYLTERSSARTRIDGTRLGVIGHSMGGGGTLEAAKSRPSLKAAIPLTPWNLDKTWPEVTTPTLVVGADGDTVAPVATHAKPFYSTLPSTTDRAYLELNNATHFAPNISNTTIAKYSVSWLKRFIDDDTRYEQFLCPLPEPDRDIEEYRGTCPLGG [TEP162] | < 25 µg |
| ADNPYERGPDPSWSSIEALRGPYTVDDTSVSRWVSGFGGGTIYYPDTTRDGDFGAAVISPGYTGTQSSIDWLGPRLASQGFVVLTIDTNSVYDQPDSRADQLQAALDYLTGSSDVADRIDPDRLALMGHSMGGGGTLRAVDDDPSIKAAIPMTPWHIKKNWSSVSTPTLIFGAERDSIAPHETHAEPFYDSLSRSLPKAYLELNNASHFAPNSSNTEIASISIAWLKRFVDDDTRYEQFVCPGPSGYAIEKYESSCPF [TEP128] | < 25 µg |
| ADNPYERGPDPTEASIEAPRGPYAVAEKSVSALEATGFGGGTIHYPTSTAEGTFGAVAIAPGYTALQSSVAWLGPRLASQGFVVITIDTHTTVDQPASRGDQLLAALDHLTRRDSVRSRVDSGRLGVMGHSMGGGGSLEAAKDRPSLQAAIPLTGWNLDKTWSEVRVPTMLIGADGDTIAPVATHSQPFYESLPSTLDRAYLELNDAGHFTPNAPDTTIAKYSVSWLKRFIDNDTRYEQFLCPLPRPSRTIDEYRGNCPHTS [TEP143] | < 25 µg |
| ADNPYERGPDPTEQLIESARGPFATAQTRVSSLSVTGFGGGVIYYPTDTSQGTFGAVAISPGFTADWTSLDWLGPRLASHGFVVIGIDTITRLDQPDSRGRQLLAALDYLTQRSSVRSRVDASRLAVAGHSMGGGGSLEAAKSRTSLKAAIPLAPWNLDKTWPEVVTPTMIFGGELDTVAPVSTHAIPFYNSLTNAREKAYLEIDNGSHFFPNVSNTLVAKYMISWLKRYVDNDTRYEQFLCPVPDDRGLSDSRGTCPGS [TEP135] | < 25 µg |
| ADNPYERGPNPTESSIEATRGHYSVSEESVSSLAPGFGGGTIYYPTTRTDGTFGAVAVVPGYTASESSIEWLGARVASQGFVVFTIDTTTRLDQPAQRGDQLLAALDYLTERSDVADRVDPSRLAVMGHSMGGGGTLEAAKDRPSLKAIIPMTPWNLDKTWGDVEVPMLDFGAEYDSIASPASHAKPFYNTHGGEKMYIELNSAGHFAPNSSNTTIAKYSISWLKRWVDNDTRYTQFLCPTPTSWLYIEESASTCGF [TEP142] | < 25 µg |
| ADNPYQRGPDPTERSVTARRGPFAIDEISVNGGIGAGFNRGTIFYPTDRSQGTFGAVAVIPGFLSPESLVRWFGPRLASQGFVVMTLTTNGLTDTPESRSEQLLAALDYLTTRSQVRDRIDPSRLAVMGHSMGGGGSLAAAAKRPTLRAAIPLAPWSLTKNWSNLTVPTLIIGAENDNVAPVAGHSERFYDSMTNVPEKAYLEMAGGNHVDPTAESDLVAKFTISWLKRFVDDDTRYDQFLCPAPRPNRQISEYRDTCPHS [DP029] | < 25 µg |
| ADNPYQRGPDPTLAGVAASRGPFATAQMSVAPGNGFNGGTVYYPTDTSAGTWGAVAIVPGYTALFADEEAWMGPWLSSFGFVVIGIETNSRTDYDAARGTQLLAALDYLTQRSPVRDRVDTSRLSVIGHSMGGGGVVYASEHRPSLKAAVALAPFSPSQNMSTDQVPTMVMAGQNDTVVTPSYLDGLYATMPAAAQSDFVQIAGADHVYYTHPQSTEMRLLIPWLKIFVDNDTRYTQFLCPSLADPSGISIYHSKCPYVPPGGTTSGGTTSGGTTTGGTTTGGTTTGGTTTGGTTTGGTVGGGTTSGGTSGGACTATYTTVNTWSGGFQGEVKVTAGGQPISGWTVRWTLGSGQSISQVWNGAVTTSGSDVSVGNVSYNGSLQPSTSTTFGFLGAGAPTDASLSCTSP [ESM049] | < 25 µg |

From the supplement of paper PMC12455559
